# Measurements reported in IntAct's records for PubMed 31515488.
# B1: TNF receptor-associated factor 1 (Homo sapiens), Q13077 (parent)
# chain: MASSSGSSPRPAPDENEFPFGCPPTVCQDPKEPRALCCAGCLSENPRNGEDQICPKCRGEDLQSISPGSRLRTQEKAHPEVAEAGIGCPFAGVGCSFKGSPQSVQEHEVTSQTSHLNLLLGFMKQWKARLGCGLESGPMALEQNLSDLQLQAAVEVAGDLEVDCYRAPCSESQEELALQHFMKEKLLAELEGKLRVFENIVAVLNKEVEASHLALATSIHQSQLDRERILSLEQRVVELQQTLAQKDQALGKLEQSLRLMEEASFDGTFLWKITNVTRRCHESACGRTVSLFSPAFYTAKYGYKLCLRLYLNGDGTGKRTHLSLFIVIMRGEYDALLPWPFRNKVTFMLLDQNNREHAIDAFRPDLSSASFQRPQSETNVASGCPLFFPLSKLQSPKHAYVKDDTMFLKCIVETST
# B2: Transcription factor 19 (Homo sapiens), Q9Y242 (parent)
# chain: MLPCFQLLRIGGGRGGDLYTFHPPAGAGCTYRLGHRADLCDVALRPQQEPGLISGIHAELHAEPRGDDWRVSLEDHSSQGTLVNNVRLPRGHRLELSDGDLLTFGPEGPPGTSPSEFYFMFQQVRVKPQDFAAITIPRSRGEARVGAGFRPMLPSQGAPQRPLSTFSPAPKATLILNSIGSLSKLRPQPLTFSPSWGGPKSLPVPAPPGEMGTTPSAPPQRNRRKSVHRVLAELDDESEPPENPPPVLMEPRKKLRVDKAPLTPTGNRRGRPRKYPVSAPMAPPAVGGGEPCAAPCCCLPQEETVAWVQCDGCDVWFHVACVGCSIQAAREADFRCPGCRAGIQT
# B3: Glycodelin (Homo sapiens), P09466 (parent)
# chain: MLCLLLTLGVALVCGVPAMDIPQTKQDLELPKLAGTWHSMAMATNNISLMATLKAPLRVHITSLLPTPEDNLEIVLHRWENNSCVEKKVLGEKTENPKKFKINYTVANEATLLDTDYDNFLFLCLQDTTTPIQSMMCQYLARVLVEDDEIMQGFIRAFRPLPRHLWYLLDLKQMEEPCRF
# partner: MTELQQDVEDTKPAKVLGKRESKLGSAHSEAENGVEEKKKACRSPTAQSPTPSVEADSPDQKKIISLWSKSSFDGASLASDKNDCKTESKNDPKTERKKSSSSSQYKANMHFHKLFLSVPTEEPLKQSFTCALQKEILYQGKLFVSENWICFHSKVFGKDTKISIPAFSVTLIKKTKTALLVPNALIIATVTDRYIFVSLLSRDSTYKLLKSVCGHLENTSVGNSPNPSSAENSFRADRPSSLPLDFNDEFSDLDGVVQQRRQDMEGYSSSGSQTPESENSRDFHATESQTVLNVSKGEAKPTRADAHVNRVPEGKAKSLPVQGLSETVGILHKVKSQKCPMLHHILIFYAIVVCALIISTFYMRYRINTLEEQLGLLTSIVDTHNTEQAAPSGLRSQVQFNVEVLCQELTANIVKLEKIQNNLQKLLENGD
# B4: Trichoplein keratin filament-binding protein (Homo sapiens), Q9BT92 (parent)
# chain: MALPTLPSYWCSQQRLNQQLARQREQEARLRQQWEQNSRYFRMSDICSSKQAEWSSKTSYQRSMHAYQREKMKEEKRRSLEARREKLRQLMQEEQDLLARELEELRLSMNLQERRIREQHGKLKSAKEEQRKLIAEQLLYEHWKKNNPKLREMELDLHQKHVVNSWEMQKEEKKQQEATAEQENKRYENEYERARREALERMKAEEERRQLEDKLQAEALLQQMEELKLKEVEATKLKKEQENLLKQRWELERLEEERKQMEAFRQKAELGRFLRHQYNAQLSRRTQQIQEELEADRRILQALLEKEDESQRLHLARREQVMADVAWMKQAIEEQLQLERAREAELQMLLREEAKEMWEKREAEWARERSARDRLMSEVLTGRQQQIQEKIEQNRRAQEESLKHREQLIRNLEEVRELARREKEESEKLKSARKQELEAQVAERRLQAWEADQQEEEEEEEARRVEQLSDALLQQEAETMAEQGYRPKPYGHPKIAWN
# partner: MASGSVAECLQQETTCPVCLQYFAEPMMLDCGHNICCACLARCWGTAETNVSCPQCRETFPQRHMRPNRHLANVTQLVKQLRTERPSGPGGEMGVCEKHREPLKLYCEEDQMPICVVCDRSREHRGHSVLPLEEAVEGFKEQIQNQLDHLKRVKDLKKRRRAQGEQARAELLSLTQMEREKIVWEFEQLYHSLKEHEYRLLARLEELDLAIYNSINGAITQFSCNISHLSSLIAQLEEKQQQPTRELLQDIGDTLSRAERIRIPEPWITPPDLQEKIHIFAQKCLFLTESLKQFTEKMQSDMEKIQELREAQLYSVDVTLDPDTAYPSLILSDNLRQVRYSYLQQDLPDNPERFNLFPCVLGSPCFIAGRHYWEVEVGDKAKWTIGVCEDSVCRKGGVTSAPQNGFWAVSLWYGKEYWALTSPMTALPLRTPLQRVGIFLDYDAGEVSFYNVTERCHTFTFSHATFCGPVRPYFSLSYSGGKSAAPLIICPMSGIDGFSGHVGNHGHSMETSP
# B5: Protein RD3 (Homo sapiens), Q7Z3Z2 (parent)
# chain: MSLISWLRWNEAPSRLSTRSPAEMVLETLMMELTGQMREAERQQRERSNAVRKVCTGVDYSWLASTPRSTYDLSPIERLQLEDVCVKIHPSYCGPAILRFRQLLAEQEPEVQEVSQLFRSVLQEVLERMKQEEEAHKLTRQWSLRPRGSLATFKTRARISPFASDIRTISEDVERDTPPPLRSWSMPEFRAPKAD
# B6: Protein BANP (Homo sapiens), Q8N9N5 (parent)
# chain: MMSEHDLADVVQIAVEDLSPDHPVVLENHVVTDEDEPALKRQRLEINCQDPSIKTICLRLDSIEAKLQALEATCKSLEEKLDLVTNKQHSPIQVPMVAGSPLGATQTCNKVRCVVPQTTVILNNDRQNAIVAKMEDPLSNRAPDSLENVISNAVPGRRQNTIVVKVPGQEDSHHEDGESGSEASDSVSSCGQAGSQSIGSNVTLITLNSEEDYPNGTWLGDENNPEMRVRCAIIPSDMLHISTNCRTAEKMALTLLDYLFHREVQAVSNLSGQGKHGKKQLDPLTIYGIRCHLFYKFGITESDWYRIKQSIDSKCRTAWRRKQRGQSLAVKSFSRRTPNSSSYCPSEPMMSTPPPASELPQPQPQPQALHYALANAQQVQIHQIGEDGQVQVGHLHIAQVPQGEQVQITQDSEGNLQIHHVGQDGQLLEATRIPCLLAPSVFKASSGQVLQGAQLIAVASSDPAAAGVDGSPLQGSDIQVQYVQLAPVSDHTAGAQTAEALQPTLQPEMQLEHGAIQIQ
# B7: Low-density lipoprotein receptor class A domain-containing protein 1 (Homo sapiens), Q5T700 (parent)
# chain: MNKVFPQGENGYTAAESKAHPGGEAGGGHLCCSRRGACLSASLLLLLATVAALIALVTILGLPSCTPGAQACITLTNRTGFLCHDQRSCIPASGVCDGVRTCTHGEDEDESLCRDVPQSLPHFLVAHCGDPASWIYSDQKCDGTNNCGDCSDELSPVTVCPPCGPGWWRCPSTFFKYCDCIPRHLCRDHVQHCSDWSDEYACPGP
# partner: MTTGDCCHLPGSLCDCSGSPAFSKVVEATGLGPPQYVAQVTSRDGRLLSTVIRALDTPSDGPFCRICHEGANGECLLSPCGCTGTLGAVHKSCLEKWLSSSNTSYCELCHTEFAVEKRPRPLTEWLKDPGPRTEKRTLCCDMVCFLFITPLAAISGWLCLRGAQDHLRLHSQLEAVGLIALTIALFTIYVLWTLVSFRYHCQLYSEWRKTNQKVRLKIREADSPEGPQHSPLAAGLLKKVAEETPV
# Variants of: B1
# Settings: with traf2_human TRAF2, Q12933
# Sequence of traf2_human TRAF2, Q12933 (Q12933 whole entry): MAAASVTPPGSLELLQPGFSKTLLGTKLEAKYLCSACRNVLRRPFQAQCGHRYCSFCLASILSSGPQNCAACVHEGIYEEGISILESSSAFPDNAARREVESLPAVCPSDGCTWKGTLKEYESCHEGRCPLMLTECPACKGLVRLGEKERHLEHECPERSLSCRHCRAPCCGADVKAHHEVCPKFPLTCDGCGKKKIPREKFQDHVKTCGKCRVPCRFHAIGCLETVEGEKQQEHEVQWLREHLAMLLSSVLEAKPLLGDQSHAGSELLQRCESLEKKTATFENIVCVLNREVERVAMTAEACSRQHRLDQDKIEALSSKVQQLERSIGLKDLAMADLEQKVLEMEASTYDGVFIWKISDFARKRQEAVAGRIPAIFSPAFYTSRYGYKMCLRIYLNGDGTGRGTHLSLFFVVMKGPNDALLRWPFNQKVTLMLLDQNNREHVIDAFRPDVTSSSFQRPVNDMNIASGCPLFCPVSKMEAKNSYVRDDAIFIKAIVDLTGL
row,Variant,effect of a mutation on the interaction
1,R226H,with no effect
2,R226C,with no effect
3,V208M,with no effect
4,R228C,with no effect
5,R228H,with no effect

# Variants of: B2
# Settings: with dnja3_human DNAJA3, Q96EY1
# Sequence of dnja3_human DNAJA3, Q96EY1 (Q96EY1 whole entry): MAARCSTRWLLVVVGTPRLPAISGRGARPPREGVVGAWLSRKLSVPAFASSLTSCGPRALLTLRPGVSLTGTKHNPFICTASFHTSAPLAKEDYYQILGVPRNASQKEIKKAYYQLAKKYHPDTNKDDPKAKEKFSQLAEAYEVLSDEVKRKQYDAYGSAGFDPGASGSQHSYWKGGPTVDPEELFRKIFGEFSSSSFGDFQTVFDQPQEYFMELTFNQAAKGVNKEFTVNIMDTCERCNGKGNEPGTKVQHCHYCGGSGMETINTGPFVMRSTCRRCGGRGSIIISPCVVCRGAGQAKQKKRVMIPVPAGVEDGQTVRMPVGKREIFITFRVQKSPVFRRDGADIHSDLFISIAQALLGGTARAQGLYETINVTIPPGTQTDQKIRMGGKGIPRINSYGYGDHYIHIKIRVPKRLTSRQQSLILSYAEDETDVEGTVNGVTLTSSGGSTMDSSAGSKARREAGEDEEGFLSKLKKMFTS
row,Variant,effect of a mutation on the interaction
1,A279V,with no effect

# Variants of: B3
# Settings: with grm2b_human GRAMD2B
row,Variant,effect of a mutation on the interaction
1,Q126K,with no effect

# Variants of: B4
# Settings: with tri27_human TRIM27, P14373
row,Variant,effect of a mutation on the interaction
1,K127R,with no effect

# Variants of: B5
# Settings: with ei2ba_human EIF2B1, Q14232
# Sequence of ei2ba_human EIF2B1, Q14232 (Q14232 whole entry): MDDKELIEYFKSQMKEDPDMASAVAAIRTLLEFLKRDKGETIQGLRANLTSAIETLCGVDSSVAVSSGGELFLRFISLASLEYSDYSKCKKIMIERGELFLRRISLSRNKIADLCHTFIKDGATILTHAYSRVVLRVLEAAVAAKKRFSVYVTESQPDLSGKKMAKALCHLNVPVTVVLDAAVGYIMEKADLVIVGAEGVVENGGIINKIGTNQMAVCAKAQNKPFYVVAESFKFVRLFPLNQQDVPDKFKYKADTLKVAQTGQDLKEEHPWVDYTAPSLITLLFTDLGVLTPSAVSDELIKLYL
row,Variant,effect of a mutation on the interaction
1,R167K,with no effect

# Variants of: B6
# Settings: with zn471_human ZNF471, Q9BX82
# Sequence of zn471_human ZNF471, Q9BX82 (Q9BX82 whole entry): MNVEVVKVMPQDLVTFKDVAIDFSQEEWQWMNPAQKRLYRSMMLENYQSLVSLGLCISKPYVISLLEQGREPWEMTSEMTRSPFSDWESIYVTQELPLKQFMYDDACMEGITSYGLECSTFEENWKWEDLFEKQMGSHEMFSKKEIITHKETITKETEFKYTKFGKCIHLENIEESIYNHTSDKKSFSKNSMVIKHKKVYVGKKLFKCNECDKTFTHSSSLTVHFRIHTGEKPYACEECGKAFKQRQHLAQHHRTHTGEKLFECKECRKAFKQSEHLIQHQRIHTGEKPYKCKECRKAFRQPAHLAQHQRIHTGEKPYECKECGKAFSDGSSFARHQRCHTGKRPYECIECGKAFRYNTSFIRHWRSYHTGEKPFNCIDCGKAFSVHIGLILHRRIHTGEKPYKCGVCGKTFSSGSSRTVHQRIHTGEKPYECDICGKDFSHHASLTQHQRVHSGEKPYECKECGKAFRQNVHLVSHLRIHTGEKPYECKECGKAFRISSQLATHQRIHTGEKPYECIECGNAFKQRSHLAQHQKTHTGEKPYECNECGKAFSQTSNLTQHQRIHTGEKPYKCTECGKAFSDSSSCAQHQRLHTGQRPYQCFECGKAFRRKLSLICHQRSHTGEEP
row,Variant,effect of a mutation on the interaction
1,P348S,with no effect

# Variants of: B7
# Settings: with marh2_human MARCHF2, Q9P0N8
row,Variant,effect of a mutation on the interaction
1,E108K,with no effect
